Results on one substance are retold here after paper PMC4468133.

This test deals with HIV-1 integrase (HIV-1).

The substance “lens-epithelium derived growth factor (LEDGF/p75) (from UniProt O75475 1-530) (natural protein)” showed an LEDGF/p75-dependent activation of in vitro integration into PN (polynucleosome) templates, IN-LEDGF/p75 preformed complex against IN alone (radiolabelled donor, average of four templates) of 5 fold.
